Data on one substance can be found in PMC4054823.

This experiment deals with SERCA (UniProt P04191). Put plainly: time-resolved FRET in reconstituted lipid vesicles. As to conditions: reference: unphosphorylated labeled PLB; sites S16.

On to “phospholamban (PLB) (from UniProt P61015) PKA-phosphorylated, HPLC-purified labeled PLB (pPLB)”, for which the “other: mole fraction of PLB bound to SERCA (xDA)” value was “weaker; reference 0.99 ± 0.01”.
